This data set deals with the molecule itself. In words: pull-down.

B1: HkRP3 (1) (aa 1-724), GST- or MBP-fused (domain or fragment, UniProt A6NC98-1 1-724, looked up)
chain: MEGGKGPRLRDFLSGSLATWALGLAGLVGEAEDSEGEEEEEEEEPPLWLEKRFLRLSDGALLLRVLGIIAPSSRGGPRMLRGLDGPAAWRVWNLNHLWGRLRDFYQEELQLLILSPPPDLQTLGFDPLSEEAVEQLEGVLRLLLGASVQCEHRELFIRHIQGLSLEVQSELAAAIQEVTQPGAGVVLALSGPDPGELAPAELEMLSRSLMGTLSKLARERDLGAQRLAELLLEREPLCLRPEAPSRAPAEGPSHHLALQLANAKAQLRRLRQELEEKAELLLDSQAEVQGLEAEIRRLRQEAQALSGQAKRAELYREEAEALRERAGRLPRLQEELRRCRERLQAAEAYKSQLEEERVLSGVLEASKALLEEQLEAARERCARLHETQRENLLLRTRLGEAHAELDSLRHQVDQLAEENVELELELQRSLEPPPGSPGEAPLAGAAPSLQDEVREAEAGRLRTLERENRELRGLLQVLQGQPGGQHPLLEAPREDPVLPVLEEAPQTPVAFDHSPQGLVQKARDGGPQALDLAPPALDSVLEASAECPQAPDSDPQEAESPLQAAAMDPQASDWSPQESGSPVETQESPEKAGRRSSLQSPASVAPPQGPGTKIQAPQLLGGETEGREAPQGELVPEAWGLRQEGPEHKPGPSEPSSVQLEEQEGPNQGLDLATGQAEAREHDQRLEGTVRDPAWQKPQQKSEGALEVQVWEGPIPGESLASGV
B1: the binding result is “binds”.

The values above are taken from PMC4390494 (Journal of immunology (Baltimore, Md. : 1950), 2015).
